Source: US20240101959A1, “USE OF IL-2R-BETA-GAMMA AGONIST PEPTIDES IN CELL MANUFACTURING” (MEDIKINE, INC., priority 2022, published 2024)
Positions of bridges follow the written chain, without caps; N, C: chain ends. No end group written: not given here.

B1: SEQ ID NO 360 (peptide)
peptide: EQRNRQWWPCWLARLGDLCDLD
B2: SEQ ID NO 356 (peptide)
peptide: WYSCWIAQIGELCDLE
B3: SEQ ID NO 362 (peptide)
peptide: WLPCWMAHLGDLCDLE
B4: SEQ ID NO 98 (peptide)
peptide: TGRWKPCWMAGLHELCDLEGFR
B5: SEQ ID NO 354 (peptide)
peptide: RRWLPCWMAHVGELCDLELGN
B6: SEQ ID NO 358 (peptide)
peptide: HGGVIGWYPCWMAKVGELCDLD
modifications: disulfide 10-19 (inferred)
B7: SEQ ID NO 353 (peptide)
peptide: SHLWFPCWMAQLGELCDLEGGP
B8: SEQ ID NO 363 (peptide)
peptide: RPSWAPCWLAQVGELCDLDHPE
modifications: disulfide 7-16 (inferred)
B9: SEQ ID NO 359 (peptide)
peptide: WYPCSIALLGELCDLESVHEKS
modifications: disulfide 4-13 (inferred)
B10: SEQ ID NO 349 (peptide)
peptide: ETLGSVWYPCWIASIGELCDLD
B11: SEQ ID NO 96 (peptide)
peptide: WLPCWMAHLGQLCDLDLPGKSM
B12: SEQ ID NO 351 (peptide)
peptide: WFPCWLAQLGELCDKE
B13: SEQ ID NO 344 (peptide)
peptide: RWPWYPCEIARIGELCDLEQAN
B14: SEQ ID NO 346 (peptide)
peptide: HGRWFPCWMAQVGDLCDLEHSN
B15: SEQ ID NO 348 (peptide)
peptide: VWFPCWFAQLGDLCDLDQDP
B16: SEQ ID NO 366 (peptide)
peptide: WHPCWLARVGDLCDLD
B17: SEQ ID NO 357 (peptide)
peptide: MNPVGTFYPCWIAKLGELCDLQ
B18: SEQ ID NO 80 (peptide)
peptide: WLPCWIARLGDLCDLE
B19: SEQ ID NO 350 (peptide)
peptide: WYSCWIAQLGELCDLDDMGDRV
modifications: disulfide 4-13 (inferred)
B20: SEQ ID NO 347 (peptide)
peptide: WYPCWLAKLGELCDLDRAEALP
B21: SEQ ID NO 345 (peptide)
peptide: FGAFYPCWKAQLGELCDLEPVT
B22: SEQ ID NO 355 (peptide)
peptide: YWCWFARVGELCDLDDGGVPS
B23: SEQ ID NO 364 (peptide)
peptide: ESKEPAFWPCWMAQLGDLCDLE
B24: SEQ ID NO 97 (peptide)
peptide: EGVFFPCWIARLGELCDLDHGL
B25: SEQ ID NO 365 (peptide)
peptide: RSLRESWFPCWMAKLGDLCDLE

Biological target: T1, hu-IL-2Rβ subunit (human, UniProt P14784 27-240, limits assumed)
T1 construct: also called human interleukin-2 receptor subunit β; CD122
T1 sequence (looked up): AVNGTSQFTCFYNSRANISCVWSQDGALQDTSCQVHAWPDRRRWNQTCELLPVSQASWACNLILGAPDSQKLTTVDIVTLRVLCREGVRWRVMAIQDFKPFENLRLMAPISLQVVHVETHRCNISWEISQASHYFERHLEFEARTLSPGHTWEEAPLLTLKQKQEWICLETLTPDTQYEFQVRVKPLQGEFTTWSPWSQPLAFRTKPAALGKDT
Assay: phage ELISA competition assay

IC50, < 100 µM:
B1
B2
B3
B4
B5
B6
B7
B8
B9
B10
B11
B12
B13
B14
B15
B16
B17
B18
B19
B20
B21
B22
B23
B24
B25
